Experimental data: PMC10766600

Legend:
[1] = target: bacteriophage T5 capsid-like particles (T5 CLPs) (bacteriophage T5)
[2] = target: bacteriophage T5 capsid-like particles (T5 CLPs) (bacteriophage T5); experiment: cryo-EM structure; pNO-decorated CLPs, 200 kV Glacios, icosahedral (I4) reconstruction from 10,449 particles, 5.8 Å

Sequence of pNO: N-terminal capsid-binding domain pN of pb10 fused at its C-terminal end with ovalbumin (Q6QGD6 whole entry, the tested form may be a part): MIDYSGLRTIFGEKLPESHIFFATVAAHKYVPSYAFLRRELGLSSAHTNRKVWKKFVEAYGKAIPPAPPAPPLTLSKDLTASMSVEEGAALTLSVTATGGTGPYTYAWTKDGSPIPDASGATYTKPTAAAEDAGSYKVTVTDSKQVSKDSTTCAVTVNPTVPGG
Sequence of pO: full-length pb10 fused at its C-terminal end with ovalbumin (Q6QGD6 whole entry, the tested form may be a part): as above

Substance: pNO: N-terminal capsid-binding domain pN of pb10 fused at its C-terminal end with ovalbumin (from UniProt Q6QGD6 1-73)
- anti-Ova IgG (ELISA) in sera of C57BL/6 mice after a single subcutaneous injection of CLP-bound pNO against pNO alone, days 14 to 192 post-injection [1]: 1000 fold
- stoichiometry N (copies per capsid) [2]: 120

Substance: pO: full-length pb10 fused at its C-terminal end with ovalbumin (from UniProt Q6QGD6 1-164)
- anti-Ova IgG (ELISA) in sera of C57BL/6 mice after a single subcutaneous injection of CLP-bound pO against pO alone, days 14 to 192 post-injection [1]: 1000 fold
